For 19 molecules, percent inhibition of neutrophil binding to GMP-140 results are on record in US6528487B1, “Peptide inhibitors of inflammation mediated by selectins” (Centocor, Inc., priority 1991, dated 2003).

Sequences and labels used below:
B1: FMOC-NNKTW-NH2 (peptide)
peptide: Fmoc-NNKTW-NH2
SMILES: C[C@@H](O)[C@H](NC(=O)[C@H](CCCCN)NC(=O)[C@H](CC(N)=O)NC(=O)[C@H](CC(N)=O)NC(=O)OCC1c2ccccc2-c2ccccc21)C(=O)N[C@@H](Cc1c[nH]c2ccccc12)C(N)=O
B2: RkIGGIWTWV-NH2 (peptide)
peptide: R[dK]IGGIWTWV-NH2
modifications: N-terminus assumed
SMILES: CC[C@H](C)[C@H](NC(=O)CNC(=O)CNC(=O)[C@@H](NC(=O)[C@@H](CCCCN)NC(=O)[C@@H](N)CCCNC(=N)N)[C@@H](C)CC)C(=O)N[C@@H](Cc1c[nH]c2ccccc12)C(=O)N[C@H](C(=O)N[C@@H](Cc1c[nH]c2ccccc12)C(=O)N[C@H](C(N)=O)C(C)C)[C@@H](C)O
B3: r…-NH2 (peptide)
peptide: [dR]KIGGIWTWV-NH2
modifications: N-terminus assumed
SMILES: CC[C@H](C)[C@H](NC(=O)CNC(=O)CNC(=O)[C@@H](NC(=O)[C@H](CCCCN)NC(=O)[C@H](N)CCCNC(=N)N)[C@@H](C)CC)C(=O)N[C@@H](Cc1c[nH]c2ccccc12)C(=O)N[C@H](C(=O)N[C@@H](Cc1c[nH]c2ccccc12)C(=O)N[C@H](C(N)=O)C(C)C)[C@@H](C)O

Values joined by “and” are separate entries in the source; they are usually repeats but may differ in a detail not shown here. Identical values can stand only once. Non-standard residues stand in square brackets, D forms with d. No end group written: not given here. *: point of attachment. Fmoc = O=C(OCC1c2ccccc2-c2ccccc21)*

In the experiment the target is GMP-140 receptors on the surface of leukocytes (human). The experiment is described as follows: neutrophil adhesion to GMP-140 coated wells, peptide preincubated with neutrophils, myeloperoxidase read-out.
In the case of RKNNKTWT-NH2 [RKNNKTWT-NH2], the percent inhibition of neutrophil binding to GMP-140 at 0.1 mM peptide was determined as 26%, the percent inhibition of neutrophil binding to GMP-140 at 0.5 mM peptide was determined as 23% and the percent inhibition of neutrophil binding to GMP-140 at 1.0 mM peptide was determined as 34%.

For RENNKTWTWV-NH2, the percent inhibition of neutrophil binding to GMP-140 at 0.1 mM peptide was determined as 34%, the percent inhibition of neutrophil binding to GMP-140 at 0.5 mM peptide is 94% and the percent inhibition of neutrophil binding to GMP-140 at 1.0 mM peptide came to 96%.

For RKNNKTWTWV-NH2, the percent inhibition of neutrophil binding to GMP-140 at 0.1 mM peptide is 13% and 14%; the percent inhibition of neutrophil binding to GMP-140 at 0.5 mM peptide was 20% and 30%.

On to RKNNKTW-NH2 [RKNNKTW-NH2], for which the percent inhibition of neutrophil binding to GMP-140 at 0.1 mM peptide was 31%, the percent inhibition of neutrophil binding to GMP-140 at 0.5 mM peptide came out at 53% and the percent inhibition of neutrophil binding to GMP-140 at 1.0 mM peptide came out at 99%.

Consider B1, for which the percent inhibition of neutrophil binding to GMP-140 at 0.1 mM peptide is 85%, the percent inhibition of neutrophil binding to GMP-140 at 0.5 mM peptide is 100% and the percent inhibition of neutrophil binding to GMP-140 at 1.0 mM peptide amounted to 99%.

For the molecule RKIGGIWTWV-NH2, the percent inhibition of neutrophil binding to GMP-140 at 0.1 mM peptide worked out at 96%, the percent inhibition of neutrophil binding to GMP-140 at 0.5 mM peptide stood at 103% and the percent inhibition of neutrophil binding to GMP-140 at 1.0 mM peptide worked out at 105%.

Regarding RKNNKTWTWE-NH2, the percent inhibition of neutrophil binding to GMP-140 at 0.1 mM peptide amounted to 17% and the percent inhibition of neutrophil binding to GMP-140 at 0.5 mM peptide came out at 20%.

Ac-RKNNKTWTWV-NH2 [Ac-…-NH2]: the percent inhibition of neutrophil binding to GMP-140 at 0.1 mM peptide worked out at 35% and the percent inhibition of neutrophil binding to GMP-140 at 0.5 mM peptide is 50%.

With RKVNNVWVWV, the percent inhibition of neutrophil binding to GMP-140 at 0.1 mM peptide was 82% and the percent inhibition of neutrophil binding to GMP-140 at 0.5 mM peptide stood at 98%.

For the molecule RKNNKTWTWV, the percent inhibition of neutrophil binding to GMP-140 at 0.1 mM peptide was determined as 14% and the percent inhibition of neutrophil binding to GMP-140 at 1.0 mM peptide worked out at 35%.

Take B2: the percent inhibition of neutrophil binding to GMP-140 at 0.1 mM peptide was 67%, the percent inhibition of neutrophil binding to GMP-140 at 0.5 mM peptide was 88% and the percent inhibition of neutrophil binding to GMP-140 at 1.0 mM peptide came to 97%.

Turning to CRKNNKTWTWV-NH2, the percent inhibition of neutrophil binding to GMP-140 at 0.1 mM peptide was 87% and the percent inhibition of neutrophil binding to GMP-140 at 1.0 mM peptide came out at 105%.

With YKNNKTWTWV-NH2, the percent inhibition of neutrophil binding to GMP-140 at 0.1 mM peptide is 9%, the percent inhibition of neutrophil binding to GMP-140 at 0.5 mM peptide stood at 98% and the percent inhibition of neutrophil binding to GMP-140 at 1.0 mM peptide was found to be 104%.

As to RKVNNVW-NH2 [RKVNNVW-NH2], the percent inhibition of neutrophil binding to GMP-140 at 1.0 mM peptide is 17%.

For the molecule B3, the percent inhibition of neutrophil binding to GMP-140 at 0.1 mM peptide was 95% and the percent inhibition of neutrophil binding to GMP-140 at 0.5 mM peptide turned out to be 96%.

In the case of RKNNGTWTWV-NH2, the percent inhibition of neutrophil binding to GMP-140 at 0.1 mM peptide was 46%, the percent inhibition of neutrophil binding to GMP-140 at 0.5 mM peptide was found to be 99% and the percent inhibition of neutrophil binding to GMP-140 at 1.0 mM peptide was 99%.

As to KWKWNRTNVT-NH2 […-NH2 (control peptide)], the percent inhibition of neutrophil binding to GMP-140 at 0.1 mM peptide turned out to be 0%, the percent inhibition of neutrophil binding to GMP-140 at 0.5 mM peptide came out at 0% and the percent inhibition of neutrophil binding to GMP-140 at 1.0 mM peptide was 0%.

As to RKVNNVWVWV-NH2, the percent inhibition of neutrophil binding to GMP-140 at 0.1 mM peptide was found to be 94% and the percent inhibition of neutrophil binding to GMP-140 at 0.5 mM peptide was 102%.

RKNNKTWTWVGTKKALTNEC-NH2: the percent inhibition of neutrophil binding to GMP-140 at 0.1 mM peptide is 9% and the percent inhibition of neutrophil binding to GMP-140 at 1.0 mM peptide is 47%.
